Assay results taken from the supplement of paper PMC10065799, “High-throughput profiling of sequence recognition by tyrosine kinases and SH2 domains using bacterial peptide display” (eLife, 2023).

Tests used:
[1] = biological target: EPHB2 (UniProt P29323); test: phosphorylation enrichment, bacterial display (enrichment ratio); higher = better substrate or ligand; peptides without Tyr show the background
[2] = biological target: MERTK (UniProt Q12866); test: as above
[3] = biological target: Fyn (UniProt P06241); test: as above
Sequence of Fyn (P06241 whole entry, looked up): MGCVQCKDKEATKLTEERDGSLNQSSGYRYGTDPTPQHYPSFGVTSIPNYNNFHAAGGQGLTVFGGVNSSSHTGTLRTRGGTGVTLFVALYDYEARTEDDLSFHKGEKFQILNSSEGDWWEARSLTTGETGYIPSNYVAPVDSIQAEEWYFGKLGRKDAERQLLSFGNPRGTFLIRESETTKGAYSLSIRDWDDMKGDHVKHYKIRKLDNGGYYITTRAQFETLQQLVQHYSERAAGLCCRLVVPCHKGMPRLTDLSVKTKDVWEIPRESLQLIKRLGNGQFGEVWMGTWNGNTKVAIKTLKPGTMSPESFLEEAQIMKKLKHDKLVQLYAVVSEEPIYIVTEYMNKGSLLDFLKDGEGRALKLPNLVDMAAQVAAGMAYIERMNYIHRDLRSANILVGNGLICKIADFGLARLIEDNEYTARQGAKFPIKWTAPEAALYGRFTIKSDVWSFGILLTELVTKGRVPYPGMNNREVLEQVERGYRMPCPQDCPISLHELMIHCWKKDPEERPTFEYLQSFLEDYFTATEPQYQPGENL

[4] = tested on: c-Abl (mouse); test: as above
[5] = biological target: EPHB1 (UniProt P54762); test: as above
[6] = biological target: Hck (UniProt P08631); test: as above
Sequence of Hck (P08631 whole entry, looked up): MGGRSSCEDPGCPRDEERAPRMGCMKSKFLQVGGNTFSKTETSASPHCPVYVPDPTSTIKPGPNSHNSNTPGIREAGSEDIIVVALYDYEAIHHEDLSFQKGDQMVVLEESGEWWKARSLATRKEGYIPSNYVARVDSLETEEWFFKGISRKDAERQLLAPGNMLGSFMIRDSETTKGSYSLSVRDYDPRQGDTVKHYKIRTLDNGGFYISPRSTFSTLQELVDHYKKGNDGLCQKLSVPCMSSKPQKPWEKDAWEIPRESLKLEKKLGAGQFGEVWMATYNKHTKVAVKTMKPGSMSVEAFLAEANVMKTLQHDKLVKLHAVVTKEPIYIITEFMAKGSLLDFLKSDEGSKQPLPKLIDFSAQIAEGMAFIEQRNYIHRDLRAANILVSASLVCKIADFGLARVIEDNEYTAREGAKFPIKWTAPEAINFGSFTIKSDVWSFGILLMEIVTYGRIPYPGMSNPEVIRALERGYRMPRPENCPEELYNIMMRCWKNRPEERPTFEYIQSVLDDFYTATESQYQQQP

[7] = biological target: Jak2 (UniProt O60674); test: as above
[8] = biological target: Fes (UniProt P07332); test: as above
Sequence of Fes (P07332 whole entry, looked up): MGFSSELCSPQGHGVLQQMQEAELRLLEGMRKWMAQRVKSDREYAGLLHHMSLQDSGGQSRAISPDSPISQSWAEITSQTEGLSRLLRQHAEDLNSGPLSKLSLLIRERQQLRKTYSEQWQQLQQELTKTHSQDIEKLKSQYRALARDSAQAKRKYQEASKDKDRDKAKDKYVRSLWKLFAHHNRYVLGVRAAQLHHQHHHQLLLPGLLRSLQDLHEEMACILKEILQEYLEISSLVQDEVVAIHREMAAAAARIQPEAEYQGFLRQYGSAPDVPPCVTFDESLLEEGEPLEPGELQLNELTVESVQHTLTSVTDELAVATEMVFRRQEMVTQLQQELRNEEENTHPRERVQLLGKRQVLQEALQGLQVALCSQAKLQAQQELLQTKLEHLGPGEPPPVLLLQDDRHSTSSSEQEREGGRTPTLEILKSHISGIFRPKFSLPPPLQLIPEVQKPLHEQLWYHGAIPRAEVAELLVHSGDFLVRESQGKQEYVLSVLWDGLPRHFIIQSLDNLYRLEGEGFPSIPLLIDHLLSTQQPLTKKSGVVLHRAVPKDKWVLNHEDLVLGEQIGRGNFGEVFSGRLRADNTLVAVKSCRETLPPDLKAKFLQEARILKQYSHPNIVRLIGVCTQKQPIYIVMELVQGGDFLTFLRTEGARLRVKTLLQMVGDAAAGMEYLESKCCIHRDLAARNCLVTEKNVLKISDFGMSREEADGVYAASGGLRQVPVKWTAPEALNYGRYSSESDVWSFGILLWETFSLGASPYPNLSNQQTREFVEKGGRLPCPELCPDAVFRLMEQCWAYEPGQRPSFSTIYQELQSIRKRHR

[9] = biological target: FGFR3 (UniProt P22607); test: as above
[10] = tested on: c-Src; test: as above
[11] = tested on: Fer (mouse); test: as above
[12] = tested on: AncSZ; test: as above
[13] = biological target: FGFR1 (UniProt P11362); test: as above
Sequence of FGFR1 (P11362 whole entry, looked up): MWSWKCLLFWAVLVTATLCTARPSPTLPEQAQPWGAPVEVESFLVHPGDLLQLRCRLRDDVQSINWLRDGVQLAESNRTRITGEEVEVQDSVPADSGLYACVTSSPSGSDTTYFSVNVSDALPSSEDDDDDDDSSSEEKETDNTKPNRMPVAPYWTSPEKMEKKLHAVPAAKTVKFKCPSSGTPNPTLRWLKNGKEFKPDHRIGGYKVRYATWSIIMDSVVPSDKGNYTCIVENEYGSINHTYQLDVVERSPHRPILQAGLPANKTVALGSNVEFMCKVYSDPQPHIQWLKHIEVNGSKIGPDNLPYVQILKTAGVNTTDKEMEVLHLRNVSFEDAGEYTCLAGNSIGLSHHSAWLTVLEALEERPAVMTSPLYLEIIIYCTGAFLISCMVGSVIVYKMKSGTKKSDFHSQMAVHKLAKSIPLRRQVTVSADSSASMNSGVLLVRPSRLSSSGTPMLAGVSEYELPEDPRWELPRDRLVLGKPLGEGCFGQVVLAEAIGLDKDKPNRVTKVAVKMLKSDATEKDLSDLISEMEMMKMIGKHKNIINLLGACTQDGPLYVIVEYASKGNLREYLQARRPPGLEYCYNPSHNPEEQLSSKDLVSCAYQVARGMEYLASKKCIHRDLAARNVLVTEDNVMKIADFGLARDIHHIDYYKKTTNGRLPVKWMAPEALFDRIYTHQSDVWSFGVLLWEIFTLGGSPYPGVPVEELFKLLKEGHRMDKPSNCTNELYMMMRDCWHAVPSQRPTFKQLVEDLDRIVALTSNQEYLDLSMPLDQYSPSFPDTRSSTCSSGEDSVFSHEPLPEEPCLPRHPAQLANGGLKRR

[14] = biological target: SHP2-C SH2; test: SH2 binding enrichment of the phosphorylated peptide, bacterial display (enrichment ratio); higher = better substrate or ligand; peptides without Tyr show the background
[15] = biological target: Grb2 SH2 (UniProt P62993); test: as above
[16] = biological target: c-Src SH2; test: as above
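Wherever SH2 binding enrichment of the phosphorylated peptide, bacterial display is given: peptide library displayed on the E. coli surface as eCPX fusions, selected cells deep-sequenced, score is each peptide's frequency after selection divided by its frequency in the input.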
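Wherever phosphorylation enrichment, bacterial display is given: 11-residue human phosphosite peptides and single-mutation variants displayed on the E. coli surface, counted by deep sequencing, each peptide's frequency after selection divided by its frequency in the unselected input library; frequency after pTyr selection over input frequency; kinase dosed for 20-30% of maximal phosphorylation in three min.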

Sequence of EPHB2 (P29323 whole entry, looked up): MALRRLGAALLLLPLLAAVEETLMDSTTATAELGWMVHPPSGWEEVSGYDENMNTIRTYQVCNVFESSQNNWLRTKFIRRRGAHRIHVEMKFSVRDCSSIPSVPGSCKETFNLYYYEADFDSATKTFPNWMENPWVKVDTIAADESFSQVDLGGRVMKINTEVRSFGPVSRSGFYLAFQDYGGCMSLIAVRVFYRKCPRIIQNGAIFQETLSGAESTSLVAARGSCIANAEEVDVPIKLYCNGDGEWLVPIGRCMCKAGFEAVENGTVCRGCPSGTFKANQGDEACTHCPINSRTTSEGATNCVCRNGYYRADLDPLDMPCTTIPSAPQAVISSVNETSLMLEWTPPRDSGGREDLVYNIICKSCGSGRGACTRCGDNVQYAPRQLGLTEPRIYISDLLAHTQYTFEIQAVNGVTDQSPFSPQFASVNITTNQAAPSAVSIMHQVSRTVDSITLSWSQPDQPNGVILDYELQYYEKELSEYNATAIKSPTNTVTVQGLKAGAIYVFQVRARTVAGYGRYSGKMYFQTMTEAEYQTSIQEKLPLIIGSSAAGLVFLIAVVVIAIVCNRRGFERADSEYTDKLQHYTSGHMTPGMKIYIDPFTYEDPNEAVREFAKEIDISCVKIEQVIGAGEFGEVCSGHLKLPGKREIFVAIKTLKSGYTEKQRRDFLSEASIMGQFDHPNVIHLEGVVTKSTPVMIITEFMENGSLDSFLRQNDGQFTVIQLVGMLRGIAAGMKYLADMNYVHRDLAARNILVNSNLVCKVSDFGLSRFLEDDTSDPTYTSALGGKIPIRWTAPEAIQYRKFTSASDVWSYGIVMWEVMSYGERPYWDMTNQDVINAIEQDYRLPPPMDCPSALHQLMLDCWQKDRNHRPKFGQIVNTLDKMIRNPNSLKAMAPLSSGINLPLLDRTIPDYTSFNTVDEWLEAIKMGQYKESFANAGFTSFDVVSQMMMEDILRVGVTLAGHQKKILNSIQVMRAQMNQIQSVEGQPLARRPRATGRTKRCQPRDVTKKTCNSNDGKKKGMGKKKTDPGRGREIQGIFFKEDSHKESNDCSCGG
Sequence of MERTK (Q12866 whole entry, looked up): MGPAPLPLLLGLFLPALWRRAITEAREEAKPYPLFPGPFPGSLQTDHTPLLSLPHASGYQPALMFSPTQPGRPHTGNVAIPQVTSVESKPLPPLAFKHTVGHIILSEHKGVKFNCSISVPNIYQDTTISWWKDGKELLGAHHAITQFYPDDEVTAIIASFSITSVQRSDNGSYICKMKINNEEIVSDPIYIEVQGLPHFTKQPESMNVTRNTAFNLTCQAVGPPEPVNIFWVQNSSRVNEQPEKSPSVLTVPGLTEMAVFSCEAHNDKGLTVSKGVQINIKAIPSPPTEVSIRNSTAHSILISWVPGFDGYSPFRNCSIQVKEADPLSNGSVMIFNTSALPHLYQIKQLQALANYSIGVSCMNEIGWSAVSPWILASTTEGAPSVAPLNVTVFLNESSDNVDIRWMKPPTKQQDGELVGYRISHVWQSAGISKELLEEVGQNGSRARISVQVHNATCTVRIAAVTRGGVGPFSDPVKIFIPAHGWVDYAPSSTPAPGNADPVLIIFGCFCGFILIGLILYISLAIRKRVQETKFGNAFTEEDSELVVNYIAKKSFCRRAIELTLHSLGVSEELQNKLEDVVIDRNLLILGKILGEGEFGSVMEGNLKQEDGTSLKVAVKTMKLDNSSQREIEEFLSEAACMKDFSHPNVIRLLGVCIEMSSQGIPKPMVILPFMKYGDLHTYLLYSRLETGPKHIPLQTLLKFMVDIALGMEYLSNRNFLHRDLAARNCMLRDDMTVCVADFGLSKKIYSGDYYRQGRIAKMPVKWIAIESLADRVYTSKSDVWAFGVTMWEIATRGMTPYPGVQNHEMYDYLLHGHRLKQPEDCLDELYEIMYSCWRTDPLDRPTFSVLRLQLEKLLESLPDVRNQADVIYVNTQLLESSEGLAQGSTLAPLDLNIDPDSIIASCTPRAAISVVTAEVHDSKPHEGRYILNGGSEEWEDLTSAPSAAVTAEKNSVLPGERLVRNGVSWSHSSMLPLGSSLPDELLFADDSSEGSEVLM

Sequence	SH2 binding enrichment [14]	SH2 binding enrichment [15]	SH2 binding enrichment [16]	phosphorylation enrichment [1]	phosphorylation enrichment [2]	phosphorylation enrichment [3]	phosphorylation enrichment [4]	phosphorylation enrichment [5]	phosphorylation enrichment [6]	phosphorylation enrichment [7]	phosphorylation enrichment [8]	phosphorylation enrichment [9]	phosphorylation enrichment [10]	phosphorylation enrichment [11]	phosphorylation enrichment [12]	phosphorylation enrichment [13]
TFSPPYFHRNC [HGD_Y333_R330S_YF]	1.18	8.96	2.42	1.08	0.718	0.363	0.878	0.268	0.539	2.21	0.808	0.83	1.01	0.483	1.81	0.535
TGQEDYDRLRP [RAC1_Y64_A59T]	0.746	0.74	0.528	0.94	0.498	0.756	0.778	0.781	0.836	1.02	1.17	0.732	0.603	0.563	1.34	0.754
TINPIYEHVGF [CHN1_Y143_YF]	0.69	0.83	0.518	23.4	11.7	12.6	12.5	19.7	11.6	1.18	9.52	0.802	9.42	18.2	1.02	0.739
TKHTFYKQPMF [GBA_Y451_D448H]	1.13	1.04	0.941	0.558	0.441	0.478	0.522	0.429	0.475	0.49	0.769	0.482	0.377	0.44	1	0.539
TLCLCYKEIEE [ATP8B1_Y658]	0.937	0.921	1.29	0.825	0.618	0.521	0.886	1.05	0.733	1.36	1.96	1.05	0.624	0.704	1.63	0.592
TLQSMYGCDMG [HLA-B_Y123_V127M]	0.485	0.916	0.757	0.823	0.63	0.597	1.15	0.709	0.609	1.2	1.43	0.955	0.689	0.599	0.939	0.8
TLSGIYQYIIA [FOXL2_Y81]	1.87	1.22	1.49	12.2	9.32	6.05	4.23	12.9	7.53	1.09	5.1	8.01	4.81	13.9	1.54	11.1
TPGPNYCPGYN [USH2A_Y463_R464C]	0.501	1.68	0.937	0.551	0.379	0.623	0.429	0.468	0.466	0.853	1.17	0.616	0.35	0.497	0.694	0.504
TQRPHYKGGGG [TYROBP_Y112_Y111H]	1.39	1.55	1.27	0.587	0.433	0.496	0.97	0.349	0.535	0.676	0.686	0.76	0.454	0.565	0.558	0.45
TRNREYDDIDD [TTYH2_Y424_D423E]	0.358	0.589	0.545	0.496	0.559	0.585	0.54	0.53	0.609	0.57	0.789	0.693	0.581	0.533	0.904	0.548
TRRSSYEDSSL [HNF4A_Y144]	0.531	0.822	0.51	0.529	0.5	0.53	0.402	0.379	0.457	0.465	0.707	0.57	0.447	0.447	1.2	0.42
TVEDHYYEGGI [TKT_Y563]	0.482	0.569	3.79	0.583	0.574	0.589	0.745	0.789	0.565	1.06	1.23	1.9	0.588	0.636	1.27	1.72
TVLWRYTGTRP [UGT1A1_Y337]	0.724	0.707	0.588	0.582	0.317	0.411	0.633	0.432	0.557	0.779	1.01	0.606	0.344	0.423	1.17	0.495
TYACSYTPVKA [FLNB_Y708]	7.09	0.85	1.54	0.868	3.02	1.25	1.78	0.567	1.32	1.24	1.06	0.627	2.4	0.78	0.991	0.877
VAFVFYKSIGP [ADGRL4_Y302_YF]	0.874	0.897	0.553	0.571	0.422	0.501	1.04	0.663	0.424	0.868	1.39	0.781	0.407	0.595	1.2	0.543
VATRWYPSPEL [CDKL5_Y177_R178P]	0.794	1.23	0.907	0.517	0.522	0.439	0.696	0.577	0.504	0.763	0.953	0.541	0.473	0.289	0.891	0.437
VDDQIYYFRKP [PBRM1_Y1289_E1287Q]	0.825	0.746	0.487	0.98	5.41	8.3	12.8	1.08	8.88	2.07	1.23	7.78	6.28	1.75	2.93	8.8
VDGSVYKLPPS [GCK_Y413_H416P]	0.525	0.744	0.426	0.563	0.5	2.81	0.661	0.429	0.61	0.598	0.795	0.492	1.46	0.514	0.728	0.523
VECHLYFTQPK [AKR1D1_Y199_P198L]	0.867	0.801	0.374	0.663	0.556	0.588	1.02	0.717	0.631	1.58	1.33	0.946	0.91	0.645	1.42	0.493

More lines, main results first:

SH2 binding enrichment [14]	SH2 binding enrichment [15]	SH2 binding enrichment [16]	Sequence	phosphorylation enrichment [1]	phosphorylation enrichment [2]	phosphorylation enrichment [3]	phosphorylation enrichment [4]	phosphorylation enrichment [5]	phosphorylation enrichment [6]	phosphorylation enrichment [7]	phosphorylation enrichment [8]	phosphorylation enrichment [9]	phosphorylation enrichment [10]	phosphorylation enrichment [11]	phosphorylation enrichment [12]	phosphorylation enrichment [13]
0.768	0.664	0.653	TGSFTYEAVEL [MTMR14_Y462]	3.89	1.87	2.21	0.801	6.56	1.78	1.31	1.24	0.711	2.45	13.1	1.77	0.466
0.768	0.802	0.885	TLNFFYQQVKS [PTK2_Y148]	0.658	0.366	0.516	0.606	0.68	0.471	1	1.15	0.849	0.361	0.575	1.15	0.471
0.89	0.772	0.536	TNFRFYLRSLE [MTM1_Y71_L70F_YF]	0.611	0.381	0.397	0.931	0.66	0.633	1.57	1.64	0.964	0.455	0.558	1.3	0.548
0.619	0.788	0.477	TNQVICLNPPI [DYNC1H1_Y970_Y970C]	0.54	0.405	0.459	1.17	0.589	0.495	0.892	0.921	0.62	0.446	0.458	0.842	0.53
1.23	0.99	0.522	TRDVNYGWIIH [MT-CYB_Y75_R80H]	1.14	1.98	0.508	0.908	0.938	0.523	1.15	1.11	0.736	0.524	4.76	1.06	0.703
0.771	0.922	0.643	TSRVLYPNDNF [PYGM_Y281_I276T]	0.424	0.408	0.456	0.51	0.456	0.558	0.638	0.7	0.436	0.415	0.432	0.64	0.545
0.745	0.725	0.475	TSSSRYFDEPV [ARFGAP3_Y356_S355R]	0.395	0.391	0.511	0.447	0.508	0.495	0.61	0.839	0.688	0.399	0.417	0.792	0.597
0.595	1.02	0.413	TTHRGYDSDNP [MMUT_Y146_A141T]	0.532	0.53	0.685	0.642	0.685	0.665	0.699	0.859	0.823	0.389	0.423	0.744	0.542
0.834	0.708	1	VARAVYQAVLS [SMG1_Y549_H546R]	0.567	0.758	1.07	0.75	0.526	2.26	0.722	0.97	0.585	1.36	1.33	0.999	0.468
0.598	0.862	0.501	VAVTKYCKEEF [ATP7B_Y1078_L1083F]	0.568	0.357	0.459	0.707	0.605	0.458	0.959	1.05	0.624	0.462	0.487	0.887	0.563
